Results reported in patent US20250051463A1 (AstraZeneca / MedImmune, published 2025).

T1: human IL3Rα (CD123), sample in solution for biolayer interferometry (human, UniProt P26951 19-305, limits assumed)
T1 construct: Soluble analyte in the Octet assay; also called hIL3-Rα; hIL3Rα
T1 sequence (looked up): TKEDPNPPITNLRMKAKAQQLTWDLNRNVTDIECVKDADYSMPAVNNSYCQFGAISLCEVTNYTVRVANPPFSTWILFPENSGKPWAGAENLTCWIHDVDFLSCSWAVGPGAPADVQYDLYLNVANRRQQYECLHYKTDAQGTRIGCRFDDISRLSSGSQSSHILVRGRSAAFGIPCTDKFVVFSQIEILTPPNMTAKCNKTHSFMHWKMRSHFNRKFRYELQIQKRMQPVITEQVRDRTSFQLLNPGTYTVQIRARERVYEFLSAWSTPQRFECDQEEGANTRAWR


What was measured:
[1] = molecular target: T2, human CD123 (IL3Rα) on cells (human, UniProt P26951 19-378); experiment: flow cytometry on Ad293 cells expressing human IL3Ra, geometric mean
T2 construct: whole, on cells; also called human IL3Rα expressed on 293 cells; AD293hIL3Rα

[2] = molecular target: T2, human CD123 (IL3Rα) on cells; experiment: flow cytometry on THP-1 CD123 (no dox) cells, Geo MFI
Protocol: (§1) THP-1 cells were transfected with an IL3Rα expression construct under the control of a doxycycline inducible promoter. THP-1 cells were maintained in DMEM containing 10% heat-inactivated fetal bovine serum (FBS) and were cultured in a humidified atmosphere of 5% CO₂ and at a temperature of 37° C. […] (Dox) inducible cells were stimulated with 1 μg/ml dox overnight before use. […] On the day of plating, cells were spun down at 1500 rpm for 3 minutes, counted, and resuspended to a final concentration of 1×10⁶ cells/ml. Two hundred μl of cells were plated in wells of 96 well microtiter plates. The plates were spun down at 1500 rpm for 3 minutes and flicked to remove media. One hundred μl of FACS buffer (PBS+2% FBS) was added to each well. […] The antibody concentration started at 12 μg/ml followed by six 1:3 dilutions (no antibody control was also run). The plates were incubated at 4° C. for 30 minutes. Following incubation, the plates were washed 3 times by spinning down at 1500 rpm for 3 minutes, flicked and 100 μl of FACs buffer was added. Alexa 647 secondary antibody (goat anti-human IgG (H+L)) was added at 1:1000 dilution in 100 μl followed by 30 minute 4° C. incubation. The plates were washed as above. […] Cells were analyzed on a BD Bioscience LSRII by collecting 10,000 cells. Flow data was analyzed in FlowJo software.

[3] = molecular target: T2, human CD123 (IL3Rα) on cells; experiment: flow cytometry on THP-1 CD123(+dox) cells, Geo MFI
Protocol: as §1

[4] = molecular target: T1, human IL3Rα (CD123), sample in solution …; experiment: kinetic binding curves, antibody on the sensor, human CD123 in solution
Protocol: Biolayer interferometry binding experiments were performed using an Octet RED384 instrument, with all measurements made at 30° C. AHC biosensor probes were soaked in kinetics buffer (PBS pH 7.2+0.02% Tween-20, 0.1% BSA, 0.05% sodium azide) for 10 minutes, followed by baseline signal measurement in kinetics buffer for 60 seconds. […] For binding to hIL3-Rα, the antibody-loaded biosensor tips were dipped in binding buffer for 60 sec (baseline), followed by immersion in a solution containing dilutions of hIL3-Rα (10-0.16 μg/mL) for 300 sec (association), and subsequent immersion in kinetics buffer for 400 sec (dissociation). For binding to hIL5-Rα and GM-CSFRa, all steps were the same except the concentration of antigen was increased (50-1.56 μg/mL) and the dissociation step was decreased to 300 sec. The signal from a buffer only reference sample was subtracted, and all curves were fit with a 1:1 binding model to determine KD values.

[5] = molecular target: T2, human CD123 (IL3Rα) on cells; experiment: flow cytometry on OCI-AML5 cells, geometric mean
[6] = molecular target: T2, human CD123 (IL3Rα) on cells; experiment: flow cytometry on Mv411 cells, geometric mean

Row | Binder | binding result [1] | further results
1 | HT31-GL (antibody, V domains shown, member of m17) VH: EVQLLESGGGLVQPGGSLRLSCAASGFTFSIYAMSWVRQAPGKGLEWVSAISGGGDSTYYADSVKGRFTISRDNSKNTLYLQMNSLRAEDTAVYYCAKDRGFYYGMDVWGQGTTVTVSS VL: not shown | binds | 
2 | HT12-GL-SG3932 (antibody, human IgG1, kappa, V domains shown, SG3932 drug-linker on Cysteine 214 (EU numbering); SG3932 drug-linker (maleimide, succinimidyl thioether) on reduced cysteines; Cysteine 220, Cysteine 226 and Cysteine 229 (EU numbering) named as conjugation sites; DAR 8, also called HT12-GL ADC; CD123 ADC) VH: EVQLLESGGGLVQPGGSLRLSCAASGFTFNIYAMTWVRQAPGKGLEWVSGISAGGDSTYYADSVKGRFTISRDNSKNTLYLQMNSLRAEDTAVYYCAKDRGYYYGMDVWGQGTTVTVSS VL: not shown |  | EC50 (read off the curve) [2]: ~0.1 µg/mL; EC50 (read off the curve) [3]: ~0.3 µg/mL
3 | J13 antibody (antibody, V domains shown, also called Antibody J13) VH: EVQLVESGGGLVQPGGSLRLSCVVSGFTFSSYAMSWVRQAPGKGLEWVSAISGSGDSTYYADSVKGRFTFSRDNSKNTLYLQMNSLRAEDTAVYYCTKDRGFYYGMDVWGQGTMVTVSS VL: not shown |  | binding result [4]: binds
4 | HT38-GL (antibody, V domains shown, member of m17) VH: EVQLLESGGGLVQPGGSLRLSCAASGFTFSSYAMSWVRQAPGKGLEWVSAISGGGDSTYYTDSVKGRFTISRDNSKNTLYLQMNSLRAEDTAVYYCAKDRGFYYGMDVWGQGTTVTVSS VL: not shown |  | binding result [5]: binds
5 | HT29-GL (antibody, V domains shown, member of m17) VH: EVQLLESGGGLVQPGGSLRLSCAASGFAFSHYAMSWVRQAPGKGLEWVSAISGGGDSTYYADSVKGRFTISRDNSKNTLYLQMNSLRAEDTAVYYCAKDRGYYYGMDVWGQGTTVTVSS VL: not shown | binds | 
6 | HT37-GL-L (antibody, V domains shown, member of m17) VH: EVQLLESGGGLVQPGGSLRLSCAASGFTFSIYAMTWVRQAPGKGLEWVSAISAGGDNTYNADSVKGRFTISRDNSKITLYLQMNSLRAEDTAVYYCAKDRGYYYGMDVWGQGTTVTVSS VL: not shown |  | binding result [5]: binds
7 | HT33-GL (antibody, V domains shown, member of m17) VH: EVQLLESGGGLVQPGGSLRLSCAASGFTFGHYAMSWVRQAPGKGLEWVSAISGGGDYTYYADSVKGRLTISRDNSKNTLYLQMNSLRAEDTAVYYCAKDRGYYYGMDVWGQGTTVTVSS VL: not shown | binds | 
8 | HT35-GL (antibody, V domains shown, member of m17) VH: EVQLLESGGGLVQPGGSLRLSCAASGFTFSHYAMTWVRQAPGKGLEWISAISGGGDSTYYADSVKGRFTISRDNSKNTLYLQMNSLRAEDTAVYYCAKDRGYYYGMDVWGQGTTVTVSS VL: not shown | binds | 
9 | HT38-GL-Q (antibody, V domains shown, member of m17) VH: EVQLLESGGGLVQPGGSLRLSCAASGFTFSSYAMSWVRQAPGKGLEWVSAISGGGDSTYYTDSVKGRFTISRDNSKNTLYLQMNSLRAEDTAVYYCAKDRGFYYGMDVWGQGTTVTVSS VL: not shown |  | binding result [5]: binds
10 | HT32-GL (antibody, V domains shown, member of m17) VH: EVQLLESGGGLVQPGGSLRLSCAASGFTFSSYAMSWVRQAPGKGLEWVSAISGGGDTTYYADSVKGRFTISRDNSKNTLYLQMNSLRAEDTAVYYCAKDRGFYYGMDVWGQGTTVTVSS VL: not shown | binds | 
11 | HT16-GL (antibody, V domains shown, member of m17) VH: EVQLLESGGGLVQPGGSLRLSCAASGFTFSNYAMTWVRQAPGKGLEWVSAISGGGDTTYYADSVKGRFTISRDNSKNTLYLQMNSLRAEDTAVYYCAKDRGYYYGMDVWGQGTTVTVSS VL: not shown | binds | 
12 | HT34-GL-L (antibody, V domains shown, member of m17) VH: EVQLLESGGGLVQPGGSLRLSCAASGFTFSHYAMTWVRQAPGKGLEWVSAISGGGDTTYYADSVKGRFTISRDNSKTTLYLQMNSLRAEDTAVYYCAKDRGYYYGMDVWGQGTTVTVSS VL: not shown | binds | 
13 | HT37-GL (antibody, V domains shown, member of m17) VH: EVQLLESGGGLVQPGGSLRLSCAASGFTFSIYAMTWVRQAPGKGLEWVSAISAGGDNTYNADSVKGRFTISRDNSKNTLYLQMNSLRAEDTAVYYCAKDRGYYYGMDVWGQGTTVTVSS VL: not shown |  | binding result [6]: binds
14 | HT30-GL (antibody, V domains shown, member of m17) VH: EVQLLESGGGLVQPGGSLRLSCAASGFTFSIYAMSWVRQAPGKGLEWVSAITAGGDTTYYAVSVKGRFTISRDNSKNTLYLQMNSLRAEDTAVYYCAKDRGYYYGMDVWGQGTTVTVSS VL: not shown | binds | 
15 | HT7-GL (antibody, V domains shown, member of m17) VH: EVQLLESGGGLVQPGGSLRLSCAASGFTFSHYAMSWVRQAPGKGLEWVSAISGGGDRTFYADSVKGRFTISRDNSKNTLYLQMNSLRAEDTAVYYCAKDRGFYYGMDVWGQGTTVTVSS VL: not shown | binds | 

Further lines, with some results ahead:

Row | binding result [1] | Binder | further results
16 | binds | HT36-GL (antibody, V domains shown, member of m17) VH: EVQLLESGGGLVQPGGSLRLSCAASGFTFSIYAMSWVRQAPGKGLEWVSAISGGGDTTYYADSVKGRFTSSRDNSKNTLYLQMNSLRAEDTAVYFCAKDRGFYYGMDVWGQGTTVTVSS VL: not shown | 
17 | binds | HT6-GL (antibody, V domains shown, member of m17) VH: EVQLLESGGGLVQPGGSLRLSCAASGFTFNSYAMSWVRQAPGKGLEWVSAVSGGGDTTYYAESVKGRFTISRDNSKNTLYLQMNSLRAEDTAVYYCAKDRGYYYGMAVWGQGTTVTVSS VL: DIVMTQSPLSLPVTPGEPASISCRSSQSLLRSNGYHYLDWYLQKPGQSPQLLIYLGSNRAPGVPDRFSGSGSGTDFTLKISRVEAEDVGVYYCMQALQTPYTFGQGTKLEIK | 
18 | binds | HT4-GL (antibody, V domains shown, member of m17) VH: EVQLLESGGGLVQPGGSLRLSCAASGFTFSIYAMSWVRQAPGKGLEWVSAISGGGDSTYNADSVKGRFTISRDNSKNTLYLQMNSLRAEDTAVYYCAKDRGYYYGMVVWGQGTTVTVSS VL: not shown | 
19 | binds | HT8-GL (antibody, V domains shown, member of m17) VH: EVQLLESGGGLVQPGGSLRLSCAASGFTFSIYAMSWVRQAPGKGLEWVSAISGGGDTTYYADSMKGRFTISRDNSKNTLYLQMNSLRAEDTAVYYCAKDRGYYYGMDVWGQGTTVTVSS VL: not shown | 
20 | binds | HT10-GL (antibody, V domains shown, member of m17) VH: EVQLLESGGGLVQPGGSLRLSCAASGFTFSHYAMTWVRQAPGKGLEWISAISGGGDSTYYADSVKGRFTISRDNSKNTLYLQMNSLRAEDTAVYYCAKDRGYYYGMDDWGQGTTVTVSS VL: not shown | 
21 | binds | HT14-GL (antibody, V domains shown, member of m17) VH: EVQLLESGGGLVQPGGSLRLSCAASGFTFNIYAMTWVRQAPGKGLEWVSGISGGGDSTYYADSVKGRFTMSRDNSKNTLYLQMNSLRAEDTAVYYCAKDRGYYYGMDVWGQGTTVTVSS VL: DIVMTQSPLSLPVTPGEPASISCKSRQSLLRSNGYNYLDWYLQKPGQSPQLLIYLGSNRASGVPDRFSGSGSGTDFTLKISRVEAEDVGVYYCMQALQTPYTFGQGTKLEIK | 
